This data set concerns the molecule itself. The data set can be described thus: crystal structure; hanging drop vapor diffusion; SsoRadA 24 mg/ml in 30 mM Tris-HCl pH 8.0; reservoir 100 mM KCl, 25 mM MgCl2, 15% isopropanol, 50 mM sodium cacodylate pH 6.0; space group P3_(1), 1.93 Å; 3_(1) overwound right-handed filament.

B1: Sulfolobus solfataricus RadA (natural protein, UniProt Q55075 1-324, looked up)
chain: MSNEVEQKKNIKTINDLPGISQTVINKLIEAGYSSLETLAVASPQDLSVAAGIPLSTAQKIIKEARDALDIRFKTALEVKKERMNVKKISTGSQALDGLLAGGIETRTMTEFFGEFGSGKTQLCHQLSVNVQLPPEKGGLSGKAVYIDTEGTFRWERIENMAKALGLDIDNVMNNIYYIRAINTDHQIAIVDDLQELVSKDPSIKLIVVDSVTSHFRAEYPGRENLAVRQQKLNKHLHQLTRLAEVYDIAVIITNQVMARPDMFYGDPTVAVGGHTLYHVPGIRIQLKKSRGNRRIARVVDAPHLPEGEVVFALTEEGIRDAEE
notes: RadA of Sulfolobus solfataricus; Forms a helical filament in the crystal (three protomers per turn, 98 Å pitch; three protomers in the asymmetric unit, each belonging to a filament of its own); also called SsoRadA; wild-type SsoRadA; source: expressed and purified as described previously [16]
As to B1, the binding result is listed as “binds”.

For the origin of these results see PMC1964548, “Structural and Functional Analyses of Five Conserved Positively Charged Residues in the L1 and N-Terminal DNA Binding Motifs of Archaeal RadA Protein” (PLoS ONE, 2007).
